Source: paper PMC5181682 (Nucleic Acids Research, 2016)
Each block holds one binder with its values, some of them ahead of it.

B4: Proliferating cell nuclear antigen (PCNA1) of Thermococcus kodakarensis (natural protein)
chain: MPFEVVFDGAKEFADLIATASNLIDEAAFKFTEEGISMRAMDPSRVVLIDLNLPESIFSKYEVEEPETIGINMDQFKKILKRGKAKDTLILRKGDENFLEITFEGTAKRTFRLPLIDVEELELELPELPFTAKVVLLGEVLKEGIKDASLVSDAIKFIAKENEFTMKAEGETNEVEIRLTLEDEGLLDLEVEEETKSAYGIRYLSDMVKGIGKADEVILRFGNEMPLQMEYMIRDEGRLTFLLAPRVEE

What was measured:
[1] = target: B4; assay: crystal structure; PCNA with FEN-1 peptide, ratio about 1:5, sitting drop; well 2.8 M ammonium sulfate, 100 mM citric acid pH 5.3, 10% PEG 4000; 2.0 Å; details: both partners purified
[2] = target: B4; assay: crystal structure; PCNA with full length TIP, ratio about 1:1.2, hanging drop; well 1.2 M ammonium sulfate, 50 mM sodium citrate pH 4.0, 10% glycerol; 2.8 Å; details: both partners purified
[3] = target: the molecule itself; assay: SAXS; PCNA:TIP peptide complex at 6.4, 4.8, 4.1 and 2.1 mg/ml, purified by SEC, 50 mM Tris-HCl pH 7.3, 200 mM NaCl, room temperature; fit to a two-member ensemble (1:1 Model A and 2:2 Model C); 2:2 form to 1:1 complexes
[4] = target: the molecule itself; assay: SAXS; free PCNA in 50 mM Tris-HCl pH 7.3, 200 mM NaCl, room temperature; fit to the crystal structure PDB 3LX1
[5] = target: B4; assay: crystal structure; PCNA with TIP peptide (residues 28-64); same space group as PCNA:TIP; 3.4 Å; details: both partners purified

B3: PCNA:TIP peptide complex (1:1) (complex)
chain: MPFEVVFDGAKEFADLIATASNLIDEAAFKFTEEGISMRAMDPSRVVLIDLNLPESIFSKYEVEEPETIGINMDQFKKILKRGKAKDTLILRKGDENFLEITFEGTAKRTFRLPLIDVEELELELPELPFTAKVVLLGEVLKEGIKDASLVSDAIKFIAKENEFTMKAEGETNEVEIRLTLEDEGLLDLEVEEETKSAYGIRYLSDMVKGIGKADEVILRFGNEMPLQMEYMIRDEGRLTFLLAPRVEE
peptide: RLKPTSLDSFLPEEHINYFRDLRIGSKKIRNAKIEEL
Kd [3]: ~100 µM
stoichiometry N [3]: 2

Binder: B4
stoichiometry N [4]: 3

Further lines, results first:

binding result [1]: binds
B1: flap endonuclease 1 (FEN-1) peptide (residues 330-340) (peptide, UniProt Q5JGN0 330-340, looked up)
peptide: KQRTLESWFGR

binding result [2]: binds
B2: TIP (Thermococcales inhibitor of PCNA), full length (natural protein, T. kodakarensis, UniProt Q5JH72 1-64, looked up)
chain: MDRKLDEFIGDATPKKVSKEKPVRRKKRLKPTSLDSFLPEEHINYFRDLRIGSKKIRNAKIEEL

binding result [5]: binds
B5: TIP peptide (residues 28-64) (peptide, UniProt Q5JH72 28-64, looked up)
peptide: RLKPTSLDSFLPEEHINYFRDLRIGSKKIRNAKIEEL
